In this data set the test system is MRA_0776 (Mycobacterium tuberculosis H37Ra). The data set is described as follows: BLI. Particulars: […] (pH not stated); BLI: PBST, 0.02% Tween-20, 30 C.

In article PMC12980445 one finds Kd data, which are given here for one substance.

pKd: −log10 of the molar value.

As a reminder, the pKd is the Kd on a negative log10 scale, so that one unit is a factor of ten. Higher therefore signals a low Kd. dosR promoter (SN441-BIO) had a negative-log Kd (pKd) of 5.54.
